How the values were obtained:
[1] = biological target: human TrkB on CHO cells (hTrkB-CHO cells) (human) (UniProt Q16620); experiment: cell-based or functional assay
[2] = biological target: T1, TrkB full length (FL, WT) conjugated with GFP, expressed in 293T cells (UniProt Q16620 32-822); experiment: immunoprecipitation of GFP-tagged full-length and truncated TrkB from 293T lysates; binding domain
T1 construct: whole, on cells; The protein stood in cell lysate, not on whole cells; the numbering of the truncation (366-822) fits human TrkB; not shown: GFP
T1 sequence (Q16620 32-822): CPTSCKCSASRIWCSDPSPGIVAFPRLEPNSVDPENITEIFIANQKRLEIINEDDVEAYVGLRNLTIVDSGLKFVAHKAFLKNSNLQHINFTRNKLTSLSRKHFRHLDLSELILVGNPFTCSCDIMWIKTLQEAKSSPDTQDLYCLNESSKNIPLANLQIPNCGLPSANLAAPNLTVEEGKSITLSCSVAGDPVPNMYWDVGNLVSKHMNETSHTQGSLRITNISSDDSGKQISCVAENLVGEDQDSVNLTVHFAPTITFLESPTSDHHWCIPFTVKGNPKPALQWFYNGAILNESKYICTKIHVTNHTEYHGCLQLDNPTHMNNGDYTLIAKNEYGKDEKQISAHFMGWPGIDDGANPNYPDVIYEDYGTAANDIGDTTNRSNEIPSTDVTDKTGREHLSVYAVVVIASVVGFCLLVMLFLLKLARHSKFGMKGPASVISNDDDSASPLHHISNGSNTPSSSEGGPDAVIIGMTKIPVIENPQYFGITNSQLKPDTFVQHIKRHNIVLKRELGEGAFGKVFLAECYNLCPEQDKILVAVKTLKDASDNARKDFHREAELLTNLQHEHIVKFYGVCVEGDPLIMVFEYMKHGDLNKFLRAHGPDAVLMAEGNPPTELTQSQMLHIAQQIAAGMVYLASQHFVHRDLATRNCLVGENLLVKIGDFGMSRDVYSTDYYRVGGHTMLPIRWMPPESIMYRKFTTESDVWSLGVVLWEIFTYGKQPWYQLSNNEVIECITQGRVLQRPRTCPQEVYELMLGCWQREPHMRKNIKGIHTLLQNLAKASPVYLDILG
Procedure: Cell were washed by cold PBS for 3 times and were lysed in buffer containing 50 mM Tris-HCl (pH 8.0), 250 mM NaCl, 1% NP-40, 0.5% deoxycholate, 0.1% SDS, and protease inhibitors (4693132001, Roche) (Roche Diagnostics) for 20 min on ice. After centrifugation to remove insoluble material, the proteins in lysate incubated with target protein over night at 4° C. 20 μl Protein A beads (sc-2003, Santacruz) were added to the protein mixture. After these mixture incubated for 4-5 h at 4° C., we washed beads for 3 times with lysis buffer. Then the supernatant was removed and 20 μl loading buffer was added to the deposit beads. The beads coupled proteins were denatured and uncoupled by 95° C. heat for 10 min.
Five extracellular domain truncated TrkB constructs were designed as shown in FIG. 2A and transfected to 293T cell for expression respectively. The lysate were collected. Immunoprecipitation was used to test the antibodies that cannot bind to truncated TrkB conjugated with GFP (see FIG. 2B). […] The others such as TrkB-agoAb418 antibody may bind to D5 domain. Δ1 lacks D1 domain (represented by Cys 1), Δ2 lacks D1 and D2 (represented by LAM) domains, Δ3 lacks D1-D3 (represented by Cys 2) domains, Δ4 lacks D1-D4 (represented by Ig1) domains, and Δ5 lacks D1-D5 (represented by Ig2) domains. “TM” represents transmembrane domain, “C” represents control (blank, empty vector). FL represents full length gene (WT).

P75 = biological target: T2, P75 (Homo sapiens (Human), UniProt P08138 29-250); experiment: ELISA on coated P75, antibody at 10 nM, 1 nM and 0.1 nM
T2 construct: also called P75 neurotrophin receptor; P75NTR
T2 sequence: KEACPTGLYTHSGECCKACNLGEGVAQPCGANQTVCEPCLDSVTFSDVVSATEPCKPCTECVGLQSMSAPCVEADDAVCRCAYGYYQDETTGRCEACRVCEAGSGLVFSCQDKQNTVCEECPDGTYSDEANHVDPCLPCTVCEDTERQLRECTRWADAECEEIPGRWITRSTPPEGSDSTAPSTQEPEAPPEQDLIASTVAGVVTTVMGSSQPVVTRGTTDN
Procedure: (§1) TrkB agonist antibodies can bind to TrkB specifically but not bind to TrkA, […], TrkC or P75 in ELISA assay. Data of exemplary antibodies TrkB-agoAb104, TrkB-agoAb202, TrkB-agoAb203, TrkB-agoAb303, TrkB-agoAb1104 and TrkB-agoAb2908 are shown in FIG. 1A-1F. 50 μL of […] protein was coated on each well of the plate, and 50 μL of 10 nM, 1 nM or 0.1 nM antibody was added to perform ELISA assay.

TrkA = biological target: T3, TrkA (Homo sapiens (Human), UniProt P04629 33-423); experiment: ELISA on coated TrkA, antibody at 10 nM, 1 nM and 0.1 nM
T3 construct: also called Tyrosine Receptor A
T3 sequence (P04629 33-423 limits assumed): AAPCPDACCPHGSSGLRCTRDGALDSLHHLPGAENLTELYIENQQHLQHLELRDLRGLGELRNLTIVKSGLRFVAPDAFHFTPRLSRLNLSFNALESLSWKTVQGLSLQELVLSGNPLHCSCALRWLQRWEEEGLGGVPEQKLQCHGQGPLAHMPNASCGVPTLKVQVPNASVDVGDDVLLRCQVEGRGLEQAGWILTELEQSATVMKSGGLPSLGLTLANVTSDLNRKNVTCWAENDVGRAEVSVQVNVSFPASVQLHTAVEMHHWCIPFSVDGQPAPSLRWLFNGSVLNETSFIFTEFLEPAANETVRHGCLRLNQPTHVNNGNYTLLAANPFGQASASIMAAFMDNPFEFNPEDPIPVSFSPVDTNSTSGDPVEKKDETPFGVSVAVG
Procedure: as §1

[3] = biological target: T4, human TrkB on CHO cells (hTrkB-CHO cells) (human, UniProt Q16620 32-822); experiment: cell-based or functional assay
T4 sequence (Q16620 32-822): as the sequence (Q16620 32-822) above

[4] = biological target: T4, human TrkB on CHO cells (hTrkB-CHO …); experiment: cell-based or functional assay; remark: listed apart in the source
[5] = biological target: T5, human TrkB (recombinant protein coated in ELISA / immobilised in Biacore) (human, UniProt Q16620 30-430, limits assumed); experiment: Biacore T200 SPR, target protein on CM5 chip, antibody in 7 dilutions as fluid phase
T5 construct: also called target protein; antigen
T5 sequence (Q16620 30-430 limits assumed): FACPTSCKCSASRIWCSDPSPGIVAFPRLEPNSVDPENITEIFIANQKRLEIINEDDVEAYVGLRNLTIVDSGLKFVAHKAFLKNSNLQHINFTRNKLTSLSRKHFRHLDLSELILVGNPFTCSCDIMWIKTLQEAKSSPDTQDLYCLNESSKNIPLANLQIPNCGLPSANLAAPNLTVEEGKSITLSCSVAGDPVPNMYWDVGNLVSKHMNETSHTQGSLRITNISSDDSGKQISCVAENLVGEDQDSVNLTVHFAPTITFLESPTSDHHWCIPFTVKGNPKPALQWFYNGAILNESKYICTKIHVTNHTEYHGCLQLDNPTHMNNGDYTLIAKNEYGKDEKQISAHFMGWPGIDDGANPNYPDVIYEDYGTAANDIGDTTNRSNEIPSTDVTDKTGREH
Procedure: Wash CM5 chip in PBS with sonication. Replace the buffer of candidate antibodies and the target protein with the same PBS. The target protein was diluted to 1 μg/μL as the solid phase and the candidate antibodies were serial diluted to 7 dilutions as the fluid phase. After obtaining the signal, Biacore Evaluation Software was used to create fitting curves. ch2<Rmax/10 indicates good confidence level.
Biacore was used to analyze the affinity of antigen-antibody interaction.

[6] = biological target: T4, human TrkB on CHO cells (hTrkB-CHO …); experiment: cell-based or functional assay; remark: listed apart in the source

Sequence of human TrkB on CHO cells (hTrkB-CHO cells) (human) (Q16620 32-822): as the sequence (Q16620 32-822) above

## brain-derived neurotrophic factor (BDNF) (from UniProt P23560 129-247) (ligand)
[1]
  EC50 of TrkB Try515 phosphorylation, Alphalisa, hTrkB-CHO cells treated 30 min: 1.39 nM

B1: TrkB-agoAb1104 (antibody, IgG1, V domains shown)
VH: QVQLQQSGAELARPGASVKLSCKASGYTFTRYWMQWVKQRPGQGLEWIGAIYPGDGDTRYTQKFKGKATLTADKSSSTAYMQLSSLASEDSAVYYCAGSGLGRAWFTYWGQGTLVTVSA
VL: DIQMTQSPASLSASVGETVTITCRSSENIYSYLAWYQQKQGKSPQLLVYNAKTLAEGVPSRFSGSGSGTQFSLKINSLQPEDFGSYYCQHHYGPPYTFGGGTKLEIK
[2]
  binding result: binds
P75
  binding result: no binding (tested: 10 nM)
TrkA
  binding result: no binding (tested: 10 nM)

B2: TrkB-agoAb203 (antibody, V domains shown)
VH: DVKLVESGGGLVKPGGSLKLSCAASGFTFSSYTMSWVRQTPEKRLEWVATISSGGDYTYFPDSVKGRFTMSRDNAKNALYLQMSSLKSEDTAMYYCTRESGRGDFDYWGQGTTLTVSS
VL: DVLMTQTPLSLPVSLGDQASISCRSSQNIVHSNGNTYLEWYLQKPGQSPNLLIYNVSNRFSGVPDRFSGSGSGTDFTLKISRVEAEDLGVYYCFQGSHFPWTFGGGTKLEIT
[3]
  EC50 of TrkB Try515 phosphorylation, Alphalisa, hTrkB-CHO cells treated 30 min: 2.84 nM
[4]
  in vitro half life (T1/2) from the time course of TrkB phosphorylation, Alphalisa, cells treated at EC50: > 24 h
[5]
  Kd: 0.0529 nM

B3: TrkB-agoAb303 (antibody, V domains shown)
VH: B2 VH
VL: B2 VL
notes: Mouse monoclonal antibody
[3]
  EC50 of TrkB Try515 phosphorylation, Alphalisa, hTrkB-CHO cells treated 30 min: 1.33 nM
P75
  binding result: no binding (tested: 10 nM)
[6]
  EC50 (read off the curve): ~1 nM
[4]
  in vitro half life (T1/2) from the time course of TrkB phosphorylation, Alphalisa, cells treated at EC50: > 24 h
[5]
  Kd: 4.02 nM
TrkA
  binding result: no binding (tested: 10 nM)

B4: TrkB-agoAb2908 (antibody, IgG1, V domains shown)
VH: QVQLQQSGPELVKPGASVKISCKASGYTFSSSWMNWVKQRPGQGLEWIGRIYPGDGHTNYNGKFKGKATLTADKSSSTAYMQLTSLTSVDSGVYFCARSGYGYGFDCWGQGTTLTVSS
VL: NIVLTQSPASLAVSLGQRATISCRASESVDNYGNSLMHWYQQKPGQPPKLLIYLASNLESGVPARFSGSGSRTDFTLTIDPVEADDAATYYCQQNNEDPPWTFGGGTKLEIKR
P75
  binding result: no binding (tested: 10 nM)
TrkA
  binding result: no binding (tested: 10 nM)

B5: TrkB-agoAbB901 (antibody, IgG2, V domains shown)
VH: EVKLVESGGGLVQPGGSLKLSCAASGFDFSRYWMSWVRQAPGKGLEWIGEINPDGSTINYTPSLKDKFIISRDNAKNTLYLQMSKVRSEDTALYYCARGNYYGSSLAWFAYWGQGTLVTVSA
VL: DIQMTQSPASQSASLGESVTITCLASQTIGTLLAWYQQKPGKSPQLLIYAATTLADGVPSRFRGSGSGTKFSFKISSLQAEDFVSYYCQQFYSTPYTFGGGTKLEIK
notes: also called TrkB-agoAb901
[2]
  binding result: binds

B6: TrkB-agoAb5702 (antibody, IgG1, V domains shown)
VH: DVQLVESGGGLVQPGGSRKLSCAASGFTFSSFGMHWVRQAPEKGLEWVAYITSGSNTIYYADTVKGRFTISRDNPKNTLFLQMTSLRSEDTALYYCARDGYFLDALDYWGQGTSVTVSS
VL: DVQITQSPSYLAASPGETITINCRASKSISKYLAWYQEKPGKTNKLLIYSGSTLQSGIPSRFSGSGSGTDFTLTISSLEPEDFAMYYCQQHNEFPLTFGAGTKLELK
[2]
  binding result: binds

B7: TrkB-agoAb6916 (antibody, V domains shown)
VH: QVQLQQSGTELMKPGASVKISCKAAGYTISSYWVEWVKQRPGHGLEWIGEILPGGGSTNYNEKFKGKATFTADISSNTAYMQLSNLTSEDSAVYYCASSDYWFAYWGQGTLVTVSA
VL: QIVLTQSPAIMSASPGEKVTMTCSASSSINYTHWFQQKPGTSPKRWIYDTSKLASGVPVRFSGSGSGTSYSLTISSMEAEDAATYYCHQRSSYPWTFGGGTKLEIK
notes: Mouse monoclonal antibody
[2]
  binding result: binds

Reference: patent publication US20210269531A1 (TSINGHUA UNIVERSITY, published 2021)
